We go through one substance from patent US20260098093A1.

The target of this assay is recombinant human VISTA-Fc protein (R&D #7126-B7) (human) (UniProt Q9H7M9). Nature of the assay: ELISA: plate coated with human VISTA-Fc, LRIG1.HIS titrated (x axis labelled 'Antibody Concentration (log M)').
recombinant human VISTA-Fc protein (R&D #7126-B7) (human), sequence (Q9H7M9 33-194 limits assumed): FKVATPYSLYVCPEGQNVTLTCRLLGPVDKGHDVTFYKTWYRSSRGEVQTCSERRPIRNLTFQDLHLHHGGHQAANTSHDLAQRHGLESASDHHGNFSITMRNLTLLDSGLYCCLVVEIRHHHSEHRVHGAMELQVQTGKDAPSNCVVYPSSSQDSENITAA

By EC50 (read off the curve) is commonly meant the concentration at which the effect is half-maximal. On to “recombinant human LRIG1.HIS (from UniProt Q96JA1 35-794) (receptor)”, for which the EC50 (read off the curve) stood at 9 nM.
